Source: patent EP1475388A2

B1: human calcium sensitive potassium channel β3a subunit, Q9NPA1 23-279 (protein)
chain: MQPFSIPVQITLQGSRRRQGRTAFPASGKKRETDYSDGDPLDVHKRLPSSTGEDRAVMLGFAMMGFSVLMFFLLGTTILKPFMLSIQREESTCTAIHTDIMDDWLDCAFTCGVHCHGQGKYPCLQVFVNLSHPGQKALLHYNEEAVQINPKCFYTPKCHQDRSDLLNSALDIKEFFDHKNGTPFSCFYSPASQSEDVILIKKYDQMAIFHCLFWPSLTLLGGALIVGMVRLTQHLSLLCEKYSTVVRDEVGGKVPYIEQHQFKLCIMRRSKGRAEKS
B2: human calcium sensitive potassium channel β3c subunit, Q9NPA1 23-279 (protein)
chain: MFPLLYELTAVSPSPFPQRTAFPASGKKRETDYSDGDPLDVHKRLPSSTGEDRAVMLGFAMMGFSVLMFFLLGTTILKPFMLSIQREESTCTAIHTDIMDDWLDCAFTCGVHCHGQGKYPCLQVFVNLSHPGQKALLHYNEEAVQINPKCFYTPKCHQDRSDLLNSALDIKEFFDHKNGTPFSCFYSPASQSEDVILIKKYDQMAIFHCLFWPSLTLLGGALIVGMVRLTQHLSLLCEKYSTVVRDEVGGKVPYIEQHQFKLCIMRRSKGRAEKS
B3: human calcium sensitive potassium channel β2 subunit, Q9Y691 1-235 (protein)
chain: MFIWTSGRTSSSYRHDEKRNIYQKIRDHDLLDKRKTVTALKAGEDRAILLGLAMMVCSIMMYFLLGITLLRSYMQSVWTEESQCTLLNASITETFNCSFSCGPDCWKLSQYPCLQVYVNLTSSGEKLLLYHTEETIKINQKCSYIPKCGKNFEESMSLVNVVMENFRKYQHFSCYSDPEGNQKSVILTKLYSSNVLFHSLFWPTCMMAGGVAIVAMVKLTQYLSLLCERIQRINR

Target: human calcium sensitive potassium channel α subunit (human Slowpoke α) (human), Q12791
Sequence (Q12791 whole entry): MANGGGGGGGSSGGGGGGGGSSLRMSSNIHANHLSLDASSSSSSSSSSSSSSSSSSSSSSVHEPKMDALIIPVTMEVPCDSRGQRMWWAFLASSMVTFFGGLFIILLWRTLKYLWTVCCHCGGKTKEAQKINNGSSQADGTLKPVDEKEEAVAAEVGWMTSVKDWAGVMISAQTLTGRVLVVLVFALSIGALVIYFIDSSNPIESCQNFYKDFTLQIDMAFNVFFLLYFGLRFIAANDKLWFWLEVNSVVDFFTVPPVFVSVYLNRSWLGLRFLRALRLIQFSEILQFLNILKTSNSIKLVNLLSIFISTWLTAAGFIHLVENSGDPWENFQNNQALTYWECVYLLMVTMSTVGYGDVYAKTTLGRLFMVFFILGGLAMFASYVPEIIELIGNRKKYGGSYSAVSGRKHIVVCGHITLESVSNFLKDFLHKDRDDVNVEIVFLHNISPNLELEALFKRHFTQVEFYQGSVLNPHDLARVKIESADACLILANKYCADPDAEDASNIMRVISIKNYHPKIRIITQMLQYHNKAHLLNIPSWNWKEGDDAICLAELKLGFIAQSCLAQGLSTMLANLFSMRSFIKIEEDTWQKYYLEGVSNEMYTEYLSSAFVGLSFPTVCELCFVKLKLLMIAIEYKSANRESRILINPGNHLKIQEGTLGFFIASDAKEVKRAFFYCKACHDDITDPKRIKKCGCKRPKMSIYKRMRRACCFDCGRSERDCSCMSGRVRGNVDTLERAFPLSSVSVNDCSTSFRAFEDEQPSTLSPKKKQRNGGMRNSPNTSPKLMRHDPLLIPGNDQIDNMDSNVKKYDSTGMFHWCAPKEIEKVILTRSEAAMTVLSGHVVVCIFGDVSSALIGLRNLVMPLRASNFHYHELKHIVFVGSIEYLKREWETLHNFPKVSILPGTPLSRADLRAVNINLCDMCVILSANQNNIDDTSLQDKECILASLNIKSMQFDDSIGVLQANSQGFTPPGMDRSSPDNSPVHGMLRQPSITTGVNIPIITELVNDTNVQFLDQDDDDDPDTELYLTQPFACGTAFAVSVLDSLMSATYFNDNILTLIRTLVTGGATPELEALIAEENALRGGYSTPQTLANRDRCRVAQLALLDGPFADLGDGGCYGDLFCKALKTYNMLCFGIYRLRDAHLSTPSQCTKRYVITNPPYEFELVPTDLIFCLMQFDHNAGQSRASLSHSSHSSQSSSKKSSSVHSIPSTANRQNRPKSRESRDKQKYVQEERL
Assay: cell-based or functional assay

Binder	V1/2 (half-maximal activation voltage, Boltzmann fit, inside-out patches, 30 µM Ca2+) [mV]	τinact (inactivation time constant at 80 mV with 30 µM intracellular Ca2+) [ms]	shift in the voltage dependence of activation [mV]
B1	45.4	30 to 40	
B2	20	30 to 40	
B3	-55	30 to 40	80
